Laboratory results published in US5677163.

Row | Hydrolysis Rate (A405 /min) (sAAPLpNA) | Hydrolysis Rate (A405 /min) (sAAApNA) | Hydrolysis Rate (A405 /min) (KAAFpNA) | Hydrolysis Rate (A405 /min) (VLKpNA) | Hydrolysis Rate (A405 /min) (sAAPFpNA) | Hydrolysis Rate (A405 /min) (sAAPMpNA) | Substance
1 | 0.45 A405/min | 0.011 A405/min | 0.002 A405/min | 0.0017 A405/min | 0.83 A405/min | 0.25 A405/min | B. amyloliquefaciens subtilisin (protease) (enzyme)
2 | 0.23 A405/min | 0.176 A405/min | 0.08 A405/min | 0.0003 A405/min | 1.15 A405/min | 0.75 A405/min | B. lentus protease (Savinase) (enzyme)
3 | 0.58 A405/min | 0.014 A405/min | 0.006 A405/min | 0.0008 A405/min | 0.87 A405/min | 0.19 A405/min | LG-12 protease (Bacillus sp. strain LG-12 subtilisin, product of the sprC gene) (enzyme)
